Results: publication PMC4488392 (2015)

Molecular target: HD5
Assay: SPR

B1: HLA-B27 heavy chain homodimer (B27_(2)), recombinant HLA-B*2705 homodimer complex (complex)
chain 1: GSHSMRYFHTSVSRPGRGEPRFITVGYVDDTLFVRFDSDAASPREEPRAPWIEQEGPEYWDRETQICKAKAQTDREDLRTLLRYYNQSEAGSHTLQNMYGCDVGPDGRLLRGYHQDAYDGKDYIALNEDLSSWTAADTAAQITQRKWEAARVAEQLRAYLEGECVEWLRRYLENGKETLQRADPPKTHVTHHPISDHEATLRCWALGFYPAEITLTWQRDGEDQTQDTELVETRPAGDRTFQKWAAVVVPSGEEQRYTCHVQHEGLPKPLTLRWEPSSQSTVPIV
chain 2: SRYWAIRTR
modifications: biotinylated (site not stated)
**Q.** With B1 as the binder, how does the Kd read?
**A.** Its Kd is 0.32 nM.
